This note sets out measurements from the Immune Epitope Database (IEDB).

The target of assay [1] is HLA-A*03:01. In words: IEDB peptide-MHC binding, purified MHC/direct/fluorescence; filed as Kd, often an IC50 or EC50 that approximates it; ≥ and ≤ were set here for values at or beyond the usual limits of such assays.
The target of assay [2] is HLA-A*69:01. The description is as above.
Assay [3] concerns the target HLA-A*01:01. Described as above. The settings on record: source organism: Pseudomonas aeruginosa.
The target in assay [4] is HLA-B*07:02. The assay is described as above.
Assay [5] concerns the target HLA-B*58:01. The assay is described as above. The settings on record: source organism: Pseudomonas aeruginosa.
Assay [6] has as its target HLA-B*40:01. The assay is described as above.
Assay [7] concerns the target HLA-A*02:01. The assay is described as above.
Assay [8] deals with HLA-A*31:01. Described as above. As to conditions: source organism: Pseudomonas aeruginosa.
Assay [9] has as its target HLA-A*26:01. Described as above.
In assay [10] the target is HLA-B*27:05. Described as above. The settings on record: source organism: Pseudomonas aeruginosa.
Assay [11] deals with HLA-B*15:01. The description is as above.
The target of assay [12] is HLA-A*11:01. The description is as above. The settings on record: source organism: Pseudomonas aeruginosa.
The target in assay [13] is HLA-B*08:01. The description is as above. The settings on record: source organism: Pseudomonas aeruginosa.
Assay [14] deals with HLA-B*15:02. Kind of assay: IEDB peptide-MHC binding, purified MHC/competitive/fluorescence; filed as Kd, often an IC50 or EC50 that approximates it; ≥ and ≤ were set here for values at or beyond the usual limits of such assays.
Assay [15] deals with HLA-A*02:12. In words: IEDB peptide-MHC binding, purified MHC/direct/fluorescence; filed as Kd, often an IC50 or EC50 that approximates it; ≥ and ≤ were set here for values at or beyond the usual limits of such assays.
In assay [16] the target is HLA-B*46:01. The assay is described as above.
Assay [17] addresses HLA-B*27:03. Described as above.
Assay [18] addresses HLA-A*02:03. Described as above.
Assay [19] concerns the target HLA-B*18:01. Described as above.
The target of assay [20] is HLA-B*51:01. Described as above.
Assay [21] has as its target HLA-A*68:02. Described as above.
The target of assay [22] is HLA-A*02:16. Described as above.
In assay [23] the target is HLA-B*35:01. The assay is described as above.
Assay [24] addresses HLA-C*12:03. The assay is described as above. The settings on record: source organism: Squirrelpox virus.
Assay [25] concerns the target HLA-A*02:19. The description is as above.
The target of assay [26] is HLA-A*24:03. The assay is described as above.
Assay [27] has as its target HLA-B*39:01. The assay is described as above.
Assay [28] concerns the target HLA-A*02:11. Described as above.
The target in assay [29] is HLA-B*15:17. The assay is described as above. The settings on record: source organism: Rickettsia sibirica 246.
The target in assay [30] is HLA-A*29:02. The assay is described as above. As to conditions: source organism: Rickettsia sibirica 246.
Assay [31] concerns the target HLA-B*57:01. The description is as above.
The target in assay [32] is HLA-B*46:01. Kind of assay: IEDB peptide-MHC binding, purified MHC/competitive/fluorescence; filed as Kd, often an IC50 or EC50 that approximates it; ≥ and ≤ were set here for values at or beyond the usual limits of such assays. As to conditions: source organism: Shigella sonnei Ss046.
The target of assay [33] is HLA-A*69:01. Described as above. As to conditions: source organism: Zaire ebolavirus.
Assay [34] addresses HLA-B*51:01. The assay is described as above. As to conditions: source organism: Zaire ebolavirus.
The target in assay [35] is HLA-A*26:01. Described as above. The settings on record: source organism: Zaire ebolavirus.
The target in assay [36] is HLA-B*27:05. The assay is described as above. As to conditions: source organism: Zaire ebolavirus.
Assay [37] concerns the target HLA-B*57:01. The assay is described as above. As to conditions: source organism: Zaire ebolavirus.
Assay [38] addresses HLA-C*14:02. In words: IEDB peptide-MHC binding, purified MHC/direct/fluorescence; filed as Kd, often an IC50 or EC50 that approximates it; ≥ and ≤ were set here for values at or beyond the usual limits of such assays. As to conditions: source organism: Yersinia pestis CO92.
[39] abbreviates: source organism: Pseudomonas aeruginosa.
The mark [40] stands for this setting: source organism: Squirrelpox virus.
[41] abbreviates: source organism: Rickettsia sibirica 246.
Where [42] appears, read: source organism: Giardia lamblia ATCC 50803.
Setting [43] is: source organism: Escherichia coli O157:H7 str. EC4486.
Setting [44] is: source organism: Zaire ebolavirus.

One may read the Kd as the constant that tells how readily two partners part at equilibrium. Low readings indicate higher affinity, high ones lower affinity. For ALEPGFKDY, the Kd in [1] (setting [39]) is not below 20 µM; in [2] (setting [39]) it was not below 20 µM; in assay [3], 2 µM; in assay [4] (setting [39]), not below 20 µM; in assay [5], not below 20 µM; in assay [6] (setting [39]), not below 20 µM. Further, the Kd was not below 20 µM in assay [7] (setting [39]); not below 20 µM in assay [8]; not below 20 µM in assay [9] (setting [39]); not below 20 µM in [10]; 0.482 µM in assay [11] (setting [39]); not below 20 µM in assay [12]. Also, the figures for the Kd in [13] and in assay [14] (source organism: Pseudomonas aeruginosa PACS2) were not below 20 µM and 0.814 µM, respectively.

With MACHRVLTY, the Kd in [15] (setting [40]), in [2] (setting [40]), in assay [4] (setting [40]), in assay [16] (setting [40]), in assay [17] (setting [40]) and in [18] (setting [40]) was not below 20 µM each time. Besides, the Kd in assay [19] (setting [40]), in assay [7] (setting [40]), in assay [20] (setting [40]), in [9] (setting [40]), in assay [21] (setting [40]) and in assay [22] (setting [40]) was not below 20 µM each time. The Kd in assay [23] (setting [40]) was 0.021 µM; in [24] it was 0.018 µM; in assay [25] (setting [40]), not below 20 µM; in assay [26] (setting [40]), not below 20 µM; in assay [27] (setting [40]), not below 20 µM; in assay [28] (setting [40]), not below 20 µM. The sequence further had a Kd in assay [11] (setting [40]) of 0.104 µM.

Consider EFVSANLAM, for which the Kd in assay [29], in assay [15] (setting [41]), in assay [1] (setting [41]), in [2] (setting [41]), in assay [4] (setting [41]) and in assay [16] (setting [41]) was not below 20 µM throughout. In addition, the Kd in assay [17] (setting [41]), in assay [18] (setting [41]), in assay [19] (setting [41]), in assay [7] (setting [41]), in assay [20] (setting [41]) and in assay [9] (setting [41]) was not below 20 µM each time. For the same sequence, the Kd in [21] (setting [41]) is not below 20 µM; in [22] (setting [41]) it was not below 20 µM; in assay [30] it was not below 20 µM; in [23] (setting [41]) it was 0.052 µM; in assay [25] (setting [41]) it was not below 20 µM; in assay [26] (setting [41]) it was not below 20 µM. The Kd in [27] (setting [41]), in assay [28] (setting [41]), in assay [11] (setting [41]) and in [31] (setting [41]) was not below 20 µM throughout.

As for LTIVFVPEV, the Kd was not below 20 µM in [1] (setting [42]); not below 20 µM in [16] (setting [42]); not below 20 µM in assay [17] (setting [42]); not below 20 µM in [19] (setting [42]); 0.004 µM in [7] (setting [42]); not below 20 µM in [9] (setting [42]). Also, the Kd in [27] (setting [42]) and in [11] (setting [42]) was not below 20 µM in each case.

Take YAMMSLFDM: the Kd in [1] (setting [43]) was not below 20 µM; in assay [4] (setting [43]) it was 18.4 µM; in assay [17] (setting [43]) it was not below 20 µM; in assay [18] (setting [43]) it was not below 20 µM; in assay [19] (setting [43]) it was not below 20 µM; in assay [20] (setting [43]) it was not below 20 µM. Also, the Kd in [9] (setting [43]) was not below 20 µM; in [23] (setting [43]), 0.004 µM; in assay [31] (setting [43]), not below 20 µM; in [32], 0.113 µM.

ELNASFIVF showed a Kd in assay [14] (source organism: Rickettsia massiliae MTU5) of 0.182 µM.

Turning to KQIPIWLPL, the Kd in assay [1] (setting [44]) was not below 20 µM; in assay [6] (source organism: Ebola virus - Gabon (1994-1997)), 0.0009 µM; in [21] (setting [44]), not below 20 µM; in assay [25] (setting [44]) it was not below 20 µM; in [33] it was not below 20 µM; in [34], not below 20 µM. Further, the values for the Kd in assay [35], in assay [36] and in assay [37] were not below 20 µM, 0.316 µM and not below 20 µM, respectively.

Consider KIMQVDRPM, for which the equilibrium dissociation constant (Kd) came to 0.102 µM in [38] and 4 µM in [14] (source organism: Yersinia pestis CO92).

SALGFTGVY had a Kd in assay [14] (source organism: Brucella canis ATCC 23365) of 0.385 µM. In other words, the sub-micromolar range.
